From US20190203302A1, “BIOMARKER C[…]-1 AS ACTIVE INGREDIENT, FOR DIAGNOSIS OF RADIATION-RESISTANT CANCER OR PREDICTION OF RADIATION THERAPY PROGNOSIS” (UNIVERSITY OF ULSAN FOUNDATION FOR INDUSTRY COOPERATION, priority 2016, published 2019)

Target: T1, LRP-1 (Homo sapiens, UniProt Q07954)
T1 construct: Proteins were extracted from colon cancer tissues of each case according to radiation irradiation; from tissue; host or cells: patient colon cancer tissue (0 Gy / 2 Gy) transplanted and subcultured in nude mice
Assay: Immunoprecipitation assay of TPSFSKI peptide phage and LRP-1, confirmed by western blotting
Assay type: binding
Conditions: proteins extracted from colon cancer tissues, 0 Gy/2 Gy irradiation, LRP-1 and M13 antibodies, IgG beads
Description: Lysate: 0 Gy/2 Gy protein extracted from radiation colon cancer tissue, IP (B5 phage): 0 Gy/2 Gy Immunoprecipitation with a specific peptide phage in protein extracted from radiation colon cancer tissue, IP (wt phage): 0 Gy/2 Gy Immunoprecipitation in protein extracted from radiation colon cancer tissue with phage without peptide, IP (w/o Ab): 0 Gy/2 Gy Immunoprecipitation without antibody in protein extracted from radiation colon cancer tissue, phage lysate: protein extracted from peptide phage targeting by irradiation in radiation resistant colon cancer tissue, Antibody: LRP-1 antibody
Based on the indirect verification that LRP-1 is a binding partner protein of the TPSFSKI peptide sequence in Examples 3 to 5, an immunoprecipitation assay was performed to directly determine whether […] was bound to the TPSFSKI sequence. Proteins were extracted from colon cancer tissues of each case according to radiation irradiation, and immunoprecipitation was performed using LRP-1 and M13 antibodies and IgG beads.

T1 sequence (Q07954 20-4544): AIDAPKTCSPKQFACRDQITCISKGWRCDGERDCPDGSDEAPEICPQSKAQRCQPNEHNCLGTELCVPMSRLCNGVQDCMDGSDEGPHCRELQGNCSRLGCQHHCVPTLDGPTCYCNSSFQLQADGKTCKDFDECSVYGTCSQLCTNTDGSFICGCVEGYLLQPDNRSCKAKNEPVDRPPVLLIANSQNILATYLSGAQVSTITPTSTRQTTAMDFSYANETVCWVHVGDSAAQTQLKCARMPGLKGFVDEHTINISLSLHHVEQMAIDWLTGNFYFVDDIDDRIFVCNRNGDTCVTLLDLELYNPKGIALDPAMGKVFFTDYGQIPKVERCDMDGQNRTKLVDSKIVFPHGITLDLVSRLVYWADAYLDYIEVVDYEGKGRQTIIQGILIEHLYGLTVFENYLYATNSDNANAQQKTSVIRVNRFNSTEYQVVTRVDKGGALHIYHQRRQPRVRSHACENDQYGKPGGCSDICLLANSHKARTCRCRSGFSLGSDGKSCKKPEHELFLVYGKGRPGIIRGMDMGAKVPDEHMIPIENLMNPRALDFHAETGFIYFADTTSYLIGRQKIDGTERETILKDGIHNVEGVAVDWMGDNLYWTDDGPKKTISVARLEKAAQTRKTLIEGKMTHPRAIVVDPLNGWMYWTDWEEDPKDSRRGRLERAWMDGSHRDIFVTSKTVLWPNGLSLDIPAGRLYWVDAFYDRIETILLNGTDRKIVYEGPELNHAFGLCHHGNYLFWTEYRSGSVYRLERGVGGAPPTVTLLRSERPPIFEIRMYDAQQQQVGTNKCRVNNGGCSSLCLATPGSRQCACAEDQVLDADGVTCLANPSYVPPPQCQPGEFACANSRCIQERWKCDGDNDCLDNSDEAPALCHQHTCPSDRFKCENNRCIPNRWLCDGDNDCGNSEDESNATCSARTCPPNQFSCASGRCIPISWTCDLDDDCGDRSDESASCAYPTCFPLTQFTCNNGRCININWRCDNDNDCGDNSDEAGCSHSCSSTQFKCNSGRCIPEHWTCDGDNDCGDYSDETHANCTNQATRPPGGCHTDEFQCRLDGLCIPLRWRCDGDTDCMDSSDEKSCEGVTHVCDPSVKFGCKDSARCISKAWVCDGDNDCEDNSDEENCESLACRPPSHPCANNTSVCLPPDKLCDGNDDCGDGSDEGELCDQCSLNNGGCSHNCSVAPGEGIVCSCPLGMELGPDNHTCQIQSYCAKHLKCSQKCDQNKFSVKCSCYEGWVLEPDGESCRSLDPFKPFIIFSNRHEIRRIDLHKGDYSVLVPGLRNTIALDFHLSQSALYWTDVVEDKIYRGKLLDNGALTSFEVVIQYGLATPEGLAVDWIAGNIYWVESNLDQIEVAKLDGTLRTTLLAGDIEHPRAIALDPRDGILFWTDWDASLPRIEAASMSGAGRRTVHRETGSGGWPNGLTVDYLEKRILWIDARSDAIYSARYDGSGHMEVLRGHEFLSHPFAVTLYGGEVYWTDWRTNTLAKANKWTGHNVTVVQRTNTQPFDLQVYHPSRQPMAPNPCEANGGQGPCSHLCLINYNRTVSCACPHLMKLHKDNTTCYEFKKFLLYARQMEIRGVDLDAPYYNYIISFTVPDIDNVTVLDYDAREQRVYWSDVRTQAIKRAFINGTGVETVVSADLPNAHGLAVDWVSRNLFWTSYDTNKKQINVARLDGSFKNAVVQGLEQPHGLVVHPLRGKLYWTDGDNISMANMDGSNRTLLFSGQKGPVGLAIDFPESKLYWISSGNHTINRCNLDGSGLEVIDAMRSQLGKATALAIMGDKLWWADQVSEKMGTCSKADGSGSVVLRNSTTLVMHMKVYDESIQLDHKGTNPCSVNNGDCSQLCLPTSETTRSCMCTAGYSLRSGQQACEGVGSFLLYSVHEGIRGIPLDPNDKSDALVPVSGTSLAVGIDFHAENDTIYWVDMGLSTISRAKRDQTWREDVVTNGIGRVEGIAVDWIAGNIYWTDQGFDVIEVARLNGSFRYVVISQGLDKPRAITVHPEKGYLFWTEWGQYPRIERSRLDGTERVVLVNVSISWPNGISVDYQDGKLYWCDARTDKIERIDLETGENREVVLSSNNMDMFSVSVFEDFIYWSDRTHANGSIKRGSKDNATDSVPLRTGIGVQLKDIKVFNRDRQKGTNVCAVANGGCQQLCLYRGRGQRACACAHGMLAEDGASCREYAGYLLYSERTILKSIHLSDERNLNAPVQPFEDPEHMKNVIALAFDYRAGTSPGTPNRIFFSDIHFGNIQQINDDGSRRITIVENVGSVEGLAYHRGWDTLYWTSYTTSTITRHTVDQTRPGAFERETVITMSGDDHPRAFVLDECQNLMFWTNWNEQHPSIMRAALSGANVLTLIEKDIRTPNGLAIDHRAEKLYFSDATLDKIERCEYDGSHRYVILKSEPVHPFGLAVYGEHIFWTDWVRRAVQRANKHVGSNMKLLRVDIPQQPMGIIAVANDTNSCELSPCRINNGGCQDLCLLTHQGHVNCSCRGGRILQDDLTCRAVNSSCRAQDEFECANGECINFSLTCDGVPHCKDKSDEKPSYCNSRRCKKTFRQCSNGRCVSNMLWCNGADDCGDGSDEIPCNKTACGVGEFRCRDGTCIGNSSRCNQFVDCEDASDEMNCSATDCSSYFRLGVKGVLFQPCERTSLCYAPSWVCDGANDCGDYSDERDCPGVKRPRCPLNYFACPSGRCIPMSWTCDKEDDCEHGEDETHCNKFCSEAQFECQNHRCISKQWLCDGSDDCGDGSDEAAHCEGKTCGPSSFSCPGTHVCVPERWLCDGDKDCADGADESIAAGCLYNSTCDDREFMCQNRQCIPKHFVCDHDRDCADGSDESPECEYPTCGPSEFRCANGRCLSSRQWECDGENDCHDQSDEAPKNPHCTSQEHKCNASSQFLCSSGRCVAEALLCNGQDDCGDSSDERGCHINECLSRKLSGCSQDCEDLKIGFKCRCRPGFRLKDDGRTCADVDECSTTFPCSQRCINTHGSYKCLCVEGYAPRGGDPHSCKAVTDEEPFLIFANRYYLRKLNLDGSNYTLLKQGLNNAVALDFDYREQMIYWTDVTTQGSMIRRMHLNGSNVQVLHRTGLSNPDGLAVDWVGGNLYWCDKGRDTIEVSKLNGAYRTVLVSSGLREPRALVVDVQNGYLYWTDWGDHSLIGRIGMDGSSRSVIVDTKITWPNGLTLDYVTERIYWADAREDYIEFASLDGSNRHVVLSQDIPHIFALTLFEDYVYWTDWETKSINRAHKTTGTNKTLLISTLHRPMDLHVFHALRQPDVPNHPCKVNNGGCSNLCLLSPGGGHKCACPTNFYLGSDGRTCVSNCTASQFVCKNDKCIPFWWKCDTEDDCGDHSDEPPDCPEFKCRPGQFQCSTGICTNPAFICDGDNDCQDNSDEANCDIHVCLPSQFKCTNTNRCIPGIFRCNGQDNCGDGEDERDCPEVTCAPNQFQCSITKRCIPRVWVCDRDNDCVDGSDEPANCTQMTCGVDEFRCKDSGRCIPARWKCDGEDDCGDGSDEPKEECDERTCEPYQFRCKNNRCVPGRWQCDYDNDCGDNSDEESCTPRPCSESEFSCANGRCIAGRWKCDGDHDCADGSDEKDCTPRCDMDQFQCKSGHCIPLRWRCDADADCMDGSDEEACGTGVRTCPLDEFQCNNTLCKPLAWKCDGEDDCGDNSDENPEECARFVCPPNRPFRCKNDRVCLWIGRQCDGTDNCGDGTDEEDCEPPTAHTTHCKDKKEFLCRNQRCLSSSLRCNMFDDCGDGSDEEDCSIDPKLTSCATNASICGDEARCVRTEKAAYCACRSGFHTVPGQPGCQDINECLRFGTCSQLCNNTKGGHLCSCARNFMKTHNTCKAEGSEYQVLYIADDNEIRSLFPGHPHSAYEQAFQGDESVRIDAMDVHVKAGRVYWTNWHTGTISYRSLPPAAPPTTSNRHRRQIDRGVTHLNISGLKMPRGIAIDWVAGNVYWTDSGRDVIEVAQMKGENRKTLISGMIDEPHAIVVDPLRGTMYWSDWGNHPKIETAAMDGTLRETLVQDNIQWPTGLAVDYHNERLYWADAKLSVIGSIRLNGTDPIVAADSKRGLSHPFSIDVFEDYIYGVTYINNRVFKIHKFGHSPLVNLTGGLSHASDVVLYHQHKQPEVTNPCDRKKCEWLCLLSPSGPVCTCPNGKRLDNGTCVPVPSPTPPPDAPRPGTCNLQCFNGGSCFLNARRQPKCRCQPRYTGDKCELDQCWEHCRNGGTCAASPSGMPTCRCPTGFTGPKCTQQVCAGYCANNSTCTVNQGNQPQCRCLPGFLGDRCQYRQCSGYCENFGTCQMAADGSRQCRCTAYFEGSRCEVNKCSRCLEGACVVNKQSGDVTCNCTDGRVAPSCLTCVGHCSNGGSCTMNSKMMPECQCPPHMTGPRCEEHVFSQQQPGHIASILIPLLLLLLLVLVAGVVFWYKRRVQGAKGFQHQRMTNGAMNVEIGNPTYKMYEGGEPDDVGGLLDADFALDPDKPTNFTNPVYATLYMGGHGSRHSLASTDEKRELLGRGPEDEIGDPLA

Substance: TPSFSKI [TPSFSKI peptide, used as peptide phage]
- binding of LRP-1 to the TPSFSKI sequence (immunoprecipitation): LRP-1 is a binding partner protein of TPSFSKI peptide
